Reference: patent US20190241648A1 (STATEN BIOTECHNOLOGY B V, published 2019)
Ends that are not written are not given here.

Key:
Test in all cases: cyclic peptide substitution array
ApoC3 peptide S62C = molecular target: T1, ApoC3 peptide S62C (human, not fully specified; cyclic (thioether))
T1 peptide: DKFCEFWDLDPEV
Outline: (§1)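 Peptide microarrays incubated with antibody samples, then stained with goat anti-human IgG (Fc) DyLight680 and anti-HA DyLight800 control antibodies, scanned at intensity 7/7 (red/green). Secondary-only pre-stain checked background binding; framing HA peptides served as quality control; substitution effects read as changes in spot intensity.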

ApoC3 peptide E63C = molecular target: T2, ApoC3 peptide E63C (human, not fully specified; cyclic (thioether))
T2 peptide: DKFSCFWDLDPEV
Outline: as §1

ApoC3 peptide E70T = molecular target: T3, ApoC3 peptide E70T (human, cyclic (thioether))
T3 peptide: DKFSEFWDLDPTV
Outline: as §1

ApoC3 peptide S62D = molecular target: T4, ApoC3 peptide S62D (human, not fully specified; cyclic (thioether))
T4 peptide: DKFDEFWDLDPEV
Outline: as §1

ApoC3 peptide E70A = molecular target: T5, ApoC3 peptide E70A (human, cyclic (thioether))
T5 peptide: DKFSEFWDLDPAV
Outline: as §1

ApoC3 peptide D59R = molecular target: T6, ApoC3 peptide D59R (human, thioether (positions not given here); not fully specified (C-terminus, bridges); also: cyclised via thioether between a C-terminal Cys and a modified N-terminus, the Cys and the N-terminal …)
T6 peptide: RKFSEFWDLDPEV
Outline: as §1

ApoC3 peptide E70F = molecular target: T7, ApoC3 peptide E70F (human, cyclic (thioether))
T7 peptide: DKFSEFWDLDPFV
Outline: as §1

ApoC3 peptide D66A = molecular target: T8, ApoC3 peptide D66A (human, not fully specified; cyclic (thioether))
T8 peptide: DKFSEFWALDPEV
Outline: as §1

ApoC3 peptide E63M = molecular target: T9, ApoC3 peptide E63M (human, cyclic (thioether))
T9 peptide: DKFSMFWDLDPEV
Outline: as §1

ApoC3 peptide S62V = molecular target: T10, ApoC3 peptide S62V (human, thioether (positions not given here); also: cyclic (thioether), ring places not given here)
T10 peptide: DKFVEFWDLDPEV
Outline: as §1

ApoC3 peptide E70K = molecular target: T11, ApoC3 peptide E70K (human, cyclic (thioether))
T11 peptide: DKFSEFWDLDPKV
Outline: as §1

ApoC3 peptide D59N = molecular target: T12, ApoC3 peptide D59N (human, thioether (positions not given here); not fully specified (C-terminus, bridges); also: cyclised via thioether between a C-terminal Cys and a modified N-terminus, the Cys and the N-terminal …)
T12 peptide: NKFSEFWDLDPEV
Outline: as §1

ApoC3 peptide S62G = molecular target: T13, ApoC3 peptide S62G (human, not fully specified; cyclic (thioether))
T13 peptide: DKFGEFWDLDPEV
Outline: as §1

ApoC3 peptide K60M = molecular target: T14, ApoC3 peptide K60M (human, cyclic (thioether))
T14 peptide: DMFSEFWDLDPEV
Outline: as §1

ApoC3 peptide E63N = molecular target: T15, ApoC3 peptide E63N (human, cyclic (thioether))
T15 peptide: DKFSNFWDLDPEV
Outline: as §1

ApoC3 peptide E70I = molecular target: T16, ApoC3 peptide E70I (human, cyclic (thioether))
T16 peptide: DKFSEFWDLDPIV
Outline: as §1

ApoC3 peptide E63G = molecular target: T17, ApoC3 peptide E63G (human, not fully specified; cyclic (thioether))
T17 peptide: DKFSGFWDLDPEV
Outline: as §1

ApoC3 peptide E70M = molecular target: T18, ApoC3 peptide E70M (human, cyclic (thioether))
T18 peptide: DKFSEFWDLDPMV
Outline: as §1

ApoC3 peptide E63S = molecular target: T19, ApoC3 peptide E63S (human, cyclic (thioether))
T19 peptide: DKFSSFWDLDPEV
Outline: as §1

ApoC3 peptide L67K = molecular target: T20, ApoC3 peptide L67K (human, thioether (positions not given here); not fully specified (bridges); also: thioether between a C-terminal Cys side chain and a modified N-terminus, the Cys is not in the chain)
T20 peptide: DKFSEFWDKDPEV
Outline: as §1

ApoC3 peptide K60A = molecular target: T21, ApoC3 peptide K60A (human, thioether (positions not given here); not fully specified (bridges); also: cyclic (thioether), positions not given here)
T21 peptide: DAFSEFWDLDPEV
Outline: as §1

ApoC3 peptide E63K = molecular target: T22, ApoC3 peptide E63K (human, cyclic (thioether))
T22 peptide: DKFSKFWDLDPEV
Outline: as §1

ApoC3 peptide V71D = molecular target: T23, ApoC3 peptide V71D (human, thioether (positions not given here); also: cyclic (thioether), ring places not given here)
T23 peptide: DKFSEFWDLDPED
Outline: as §1

ApoC3 peptide D68P = molecular target: T24, ApoC3 peptide D68P (human, cyclic (thioether))
T24 peptide: DKFSEFWDLPPEV
Outline: as §1

ApoC3 peptide D59E = molecular target: T25, ApoC3 peptide D59E (human, thioether (positions not given here); not fully specified (C-terminus, bridges))
T25 peptide: EKFSEFWDLDPEV
Outline: as §1

ApoC3 peptide E70R = molecular target: T26, ApoC3 peptide E70R (human, cyclic (thioether))
T26 peptide: DKFSEFWDLDPRV
Outline: as §1

ApoC3 peptide V71S = molecular target: T27, ApoC3 peptide V71S (human, not fully specified; cyclic (thioether))
T27 peptide: DKFSEFWDLDPES
Outline: as §1

ApoC3 peptide F64Q = molecular target: T28, ApoC3 peptide F64Q (human, thioether (positions not given here); not fully specified (bridges); also: cyclic (thioether), positions not given here)
T28 peptide: DKFSEQWDLDPEV
Outline: as §1

ApoC3 peptide F64P = molecular target: T29, ApoC3 peptide F64P (human, thioether (positions not given here); not fully specified (bridges); also: cyclic (thioether), positions not given here)
T29 peptide: DKFSEPWDLDPEV
Outline: as §1

ApoC3 peptide F61G = molecular target: T30, ApoC3 peptide F61G (human, cyclic (thioether))
T30 peptide: DKGSEFWDLDPEV
Outline: as §1

ApoC3 peptide V71I = molecular target: T31, ApoC3 peptide V71I (human, thioether (positions not given here); also: cyclic (thioether), ring places not given here)
T31 peptide: DKFSEFWDLDPEI
Outline: as §1

% of binding to wild-type peptide (ApoC3 peptide S62C): 0%
% of binding to wild-type peptide (ApoC3 peptide E63C): 2.3%
% of binding to wild-type peptide (ApoC3 peptide E70T): 83%
% of binding to wild-type peptide (ApoC3 peptide S62D): 0%
% of binding to wild-type peptide (ApoC3 peptide E70A): 50%
% of binding to wild-type peptide (ApoC3 peptide D59R): 43.3%
% of binding to wild-type peptide (ApoC3 peptide E70F): 40.1%
% of binding to wild-type peptide (ApoC3 peptide D66A): 0%
% of binding to wild-type peptide (ApoC3 peptide E63M): 13.1%
% of binding to wild-type peptide (ApoC3 peptide S62V): 30.5%
% of binding to wild-type peptide (ApoC3 peptide E70K): 60.1%
% of binding to wild-type peptide (ApoC3 peptide D59N): 52.5%
% of binding to wild-type peptide (ApoC3 peptide S62G): 0.88%
% of binding to wild-type peptide (ApoC3 peptide K60M): 186%
% of binding to wild-type peptide (ApoC3 peptide E63N): 31.3%
% of binding to wild-type peptide (ApoC3 peptide E70I): 65.6%
% of binding to wild-type peptide (ApoC3 peptide E63G): 0%
% of binding to wild-type peptide (ApoC3 peptide E70M): 74%
% of binding to wild-type peptide (ApoC3 peptide E63S): 47.9%
% of binding to wild-type peptide (ApoC3 peptide L67K): 45.6%
% of binding to wild-type peptide (ApoC3 peptide K60A): 143%
% of binding to wild-type peptide (ApoC3 peptide E63K): 19.1%
% of binding to wild-type peptide (ApoC3 peptide V71D): 111%
% of binding to wild-type peptide (ApoC3 peptide D68P): 28.6%
% of binding to wild-type peptide (ApoC3 peptide D59E): 128%
% of binding to wild-type peptide (ApoC3 peptide E70R): 35.8%
% of binding to wild-type peptide (ApoC3 peptide V71S): 74.1%
% of binding to wild-type peptide (ApoC3 peptide F64Q): 130%
% of binding to wild-type peptide (ApoC3 peptide F64P): 528%
% of binding to wild-type peptide (ApoC3 peptide F61G): 0.74%
% of binding to wild-type peptide (ApoC3 peptide V71I): 66%
B1: Llama antibody 5E5 (antibody, V domains shown)
VH: QLQLVESGGGLVQPGGSLRLSCAASGFTFGTYSMRWVRQVPRKALEWVSSISTDGGGTAYRDSVKGRFTISRDNAKNTLYLQMNNLKPEDTAIYYCVIAGYSDWGQGTQVTVSS
VL: ATMLTQSPGSLSVVPGESASISCKTSQGLVHSDGKTYFYWFLQKPGQSPQQLIYQVSNRASGVPDRFTGSGSGTDFTLKISGVKAEDAGVYYCAQGTYYPHTFGSGTRLEIK
notes: detected with goat anti-human IgG (Fc); also called mAb 5E5
